From paper PMC9097488

Experiments:
[1] = molecular target: MapSPARTA complex (heterodimer of MapAgo and MapTIR-APAZ) (Maribacter polysiphoniae); experiment: SEC-MALS
[2] = molecular target: Crenotalea thermophila TIR-APAZ after removal of the 6xHis-MBP tag (Crenotalea thermophila); experiment: SEC-MALS

| Substance | stoichiometry N [1] | stoichiometry N [2] |
| --- | --- | --- |
| MapSPARTA complex (heterodimer of MapAgo and MapTIR-APAZ) | 4 | – |
| Crenotalea thermophila short pAgo (natural protein) | – | 1 |
